Measured values: patent publication US20250333486A1, “Anti-HSP90 alpha antibody and uses thereof” (NATIONAL HEALTH RESEARCH INSTITUTES, priority 2021, published 2025)
Entries after “also recorded” stand apart in the source; their conditions may differ.

Columns and labels:
PANC-1 cells = test: Transwell invasion assay, rHSP90α-induced PANC-1 invasion; type: cell-based, human; settings: 15 μg/ml rHSP90α plus 10 μg/ml antibody
Protocol: In a 37° C. and 5% CO2 humidified incubator, cancer cells were subjected to serum starvation in 0.5% FBS-containing medium for 16 h, and then added […] After another 24 h, the treated cells were harvested as aliquots (1×10^5 cells per aliquot) in 0.5% FBS-containing culture medium, and then each aliquot was seeded into a top chamber of Transwell inserts pre-coated with 5-fold diluted Matrigel (BD Biosciences). Cells were allowed 16 h to invade through the Matrigel toward the bottom chambers containing culture medium plus 10% FBS. The filters of the Transwell inserts were then fixed and stained with Giemsa. Invasive cells on the lower side of filters were photographed using the Axiovert S100/AxioCam HR microscope system (Carl Zeiss, Oberkochen, Germany) and further quantified by the Image-Pro Plus software (Media Cybernetics, Inc., Silver Spring, MD, USA).

[1] = tested on: Panc 02 plus EndoMT cell grafts; test: Prophylactic efficacy in desmoplastic mouse PDAC transplant model; type: in vivo; settings: 5 mg/kg IV, 8 doses at 3-day intervals from Day-4
Protocol: (§1) Mouse experiments were performed with the permission of the Institutional Animal Care and Use Committee of National Health Research Institutes (NHRI-IACUC-106031-A, 109022-M2-S02, and 109196-A). To establish a desmoplastic tumor transplant model, C57BL/6 mice at 12 weeks of age were subcutaneously inoculated with a mix of Panc 02 cells and EndoMT-derived CAFs (i.e. OPN-treated 3B-11 cells). See Fan C S, Chen L L, Hsu T A, et al. Endothelial-mesenchymal transition harnesses HSP90α-secreting M2-macrophages to exacerbate pancreatic ductal adenocarcinoma. J Hematol Oncol 2019;12:138; and Chua K V, Fan C S, Chen L L, Chen C C, Hsieh S C, Huang T S. Octyl gallate induces pancreatic ductal adenocarcinoma cell apoptosis and suppresses endothelial-mesenchymal transition-promoted M2-macrophages, HSP90α secretion, and tumor growth. Cells 2020;9(1):91. Sizes of developing tumors were superficially measured with a Vernier caliper, and tumor volumes were calculated with the formula ½×length×width^2. Real tumors were weighed when mice were sacrificed. To establish a desmoplastic tumor transplant model in humanized mice, NOD-SCID IL2R^null (ASID) mice transplanted with human hematopoietic stem cells (hHSC) were subcutaneously inoculated with a mix of PANC-1 cells and OPN-treated HUVECs. The employed hHSC-transplanted ASID mice were produced from the National Laboratory Animal Center (Taipei, Taiwan) and all contained human CD45^+ cell levels more than 38% of total lymphocytes. To establish an M2-macrophage-exacerbated mouse PDAC model, C57BL/6 mice were subcutaneously inoculated with a mix of Panc 02 cells and rHSP90α-treated BMDMs. Additionally, LSL-KrasG12D/Pdx1-Cre transgenic mice were adopted as a spontaneously PDAC-developing mouse model to evaluate the therapeutic efficacy of HH01 antibody. LSL-KrasG12D and Pdx1-Cre breeder mice were obtained from the Mouse Models of Human Cancers Consortium Repository of the National Cancer Institute (Frederick, Maryland, USA). LSL-KrasG12D mice were crossed with Pdx1-Cre mice to generate LSL-KrasG12D/Pdx1-Cre mice.
(§2) For assaying the HSP90α-binding activities of the prepared antibodies, 96-well plates were coated with 12.5 ng/ml of rHSP90α in the capture buffer (BioLegend, San Diego, CA, USA) by overnight incubation at 4° C. The coated plates were washed twice with PBST and then blocked with PBST plus 3% bovine serum albumin (BSA). […] The reactions were stopped by the addition of 0.5 M H2SO4, and OD450 values were measured by an Infinite M200 microplate reader (TECAN, Männedorf, Switzerland). Additionally, the immunoglobulin (IgG) isotype characterization of anti-HSP90α antibodies was performed by using the Mouse Ig Isotyping ELISA Ready-Set-Go!™ Kit (eBioscience™, Thermo Fisher Scientific, Waltham, MA, USA). […]

[2] = tested on: Panc 02 plus rHSP90α-treated BMDM cell grafts; test: Therapeutic efficacy in M2-macrophage-exacerbated mouse PDAC model; type: in vivo
Protocol: as §1
For assaying the HSP90α-binding activities of the prepared antibodies, 96-well plates were coated with 12.5 ng/ml of rHSP90α in the capture buffer (BioLegend, San Diego, CA, USA) by overnight incubation at 4° C. The coated plates were washed twice with PBST and then blocked with PBST plus 3% bovine serum albumin (BSA). The prepared antibodies were applied and incubated 2 h at room temperature. After three washes with PBST, horseradish peroxidase-conjugated secondary antibody was added and incubated at 37° C. for another 1 h. After three washes, 0.3 mg/ml of 3,3′,5,5′-tetramethylbenzidine in 0.015% H2O2 was added into each well and incubated in the dark at room temperature for 10 min. The reactions were stopped by the addition of 0.5 M H2SO4, and OD450 values were measured by an Infinite M200 microplate reader (TECAN, Männedorf, Switzerland). Additionally, the immunoglobulin (IgG) isotype characterization of anti-HSP90α antibodies was performed by using the Mouse Ig Isotyping ELISA Ready-Set-Go!™ Kit (eBioscience™, Thermo Fisher Scientific, Waltham, MA, USA). The ELISA protocol was also used to assay the secreted HSP90α levels of mouse serum samples as described previously. See Chen J S, Hsu Y M, Chen C C, Chen L L, Lee C C, Huang T S. Secreted heat shock protein 90α induces colorectal cancer cell invasion through CD91/LRP-1 and NF-κB-mediated integrin αV expression. J Biol Chem 2010;285(33):25458-66.
Mouse tissue sections with a 4-μm thickness were deparaffinized by xylene and rehydrated in graded ethanol dilutions. Antigen retrieval was performed by heating the sections for 15 min in 10 mM of citrate buffer, pH 6.0, under high pressure. The endogenous peroxidase activity was blocked by 0.3% H2O2. Before staining, the sections were blocked 30 min with PBS plus 3% BSA at room temperature in a humidified chamber. […]

[3] = Dynamic Light Scattering assay; type: physicochemical
[4] = Mouse splenic enlargement; settings: in vivo
[5] = tested on: Panc 02 plus EndoMT cell grafts; test: Therapeutic efficacy in desmoplastic mouse PDAC transplant model; type: in vivo; settings: 5 mg/kg IV, 3 times at 7-day intervals from Day-20
Protocol: as §1, §2

[6] = Pharmacokinetic assay in male mice; settings: IV single dose 10 mg/kg
Text: Food and water were available ad libitum at all times. For determination of the serum exposure levels of HH01 antibody, blood samples were collected at Day-0.04, 0.08, 0.25, 1, 2, 3, 7, 9, 14, 16, 18, 21, 23, 25, 35, 42, 49, 56, and 63 post administration.

[7] = 5 mg/kg from Day-27, second dose after 7 days
[8] = immunohistofluorescent staining of tumor tissues

B1: HH01: humanized anti-HSP90α IgG1 antibody, mutant of Clone-2-chimera; VH SEQ ID NO: 12, VL SEQ ID NO: 17 (antibody, V domains shown)
VH: EVQLVESGGGLVQPGGSLRLSCAASGFTFKTYAMNWVRQAPGQGLEWVARIRSKSRNYATYYADSVKDRFTISRDDSKNQFYLQMNNLRTEDTAVYYCVVGGSGFDYWGQGTTLTVSS
VL: DVVMTQTPLSLPVSLGDQASISCRSSQSIVHSNGNTYLEWYLQKPGQSPQLLIYKVSNRFSGVPDRFSGSGSGTDFTLTISSVEAEDLGVYYCFQGSHVPWTFGGGTKLEIK
modifications: Heavy chain variable region; Light chain variable region
suppression of rHSP90α-induced invasiveness of PANC-1 cells (PANC-1 cells): superior to Clone-2-hB, Clone-2-hC, and their parental Clone-2
kinetics of the tumor growth [1]: potently suppressed
serum HSP90α levels [1]: significantly reduced
tumor desmoplasia (Masson trichrome) [1]: significantly prevented
tumor sizes (weights) on Day-30 [1]: significantly repressed
elevation of serum HSP90α levels [2, 7]: significantly suppressed
tumor volume [2, 7]: drastic tumor shrinkage upon HH01 treatment was observed immediately after 3 days
tumors on Day-42 [2, 7]: shrank significantly
CD4^+TNF-α^+ (effective T) cells [2, 8]: both increased
CD8^+TNF-α^+ (cytotoxic T) cells [2, 8]: both increased
F4/80^+Arginase1^+ (M2) cells [2, 8]: decrease
F4/80^+iNOS^+ (M1) cells [2, 8]: increase
CD4^+ and CD8^+ cell levels in tumor (immunohistochemistry) ([2]; tumor samples): effectively restored
M2-macrophages in tumor (CD163, CD204 immunohistochemistry) ([2]; tumor samples): M2-macrophage reduction
aggregate formation [3]: did not easily form aggregate; also recorded: not easy to form aggregate
size of average diameter ([3]; Dynamic Light Scattering): 19.33 nm
size range ([3]; Dynamic Light Scattering): 10-50 nm
mouse splenic enlargement [4]: will not cause mouse splenic enlargement
serum HSP90α levels [5]: significant decreases
tumor desmoplasia [5]: significant decreases
tumor growth by weight on Day-41 [5]: indeed repressed
tumor growth kinetics [5]: totally suppressed
clearance rate [6]: 4.3 mL/day/kg
volume in steady state [6]: 80 mL/kg
